Experimental data from publication PMC6736072 (Nucleic Acids Research, 2019).

Molecular target: T1, His-MAD1 (recombinant, not phosphorylated by ULK1) (human, UniProt Q9Y6D9 1-718)
T1 sequence: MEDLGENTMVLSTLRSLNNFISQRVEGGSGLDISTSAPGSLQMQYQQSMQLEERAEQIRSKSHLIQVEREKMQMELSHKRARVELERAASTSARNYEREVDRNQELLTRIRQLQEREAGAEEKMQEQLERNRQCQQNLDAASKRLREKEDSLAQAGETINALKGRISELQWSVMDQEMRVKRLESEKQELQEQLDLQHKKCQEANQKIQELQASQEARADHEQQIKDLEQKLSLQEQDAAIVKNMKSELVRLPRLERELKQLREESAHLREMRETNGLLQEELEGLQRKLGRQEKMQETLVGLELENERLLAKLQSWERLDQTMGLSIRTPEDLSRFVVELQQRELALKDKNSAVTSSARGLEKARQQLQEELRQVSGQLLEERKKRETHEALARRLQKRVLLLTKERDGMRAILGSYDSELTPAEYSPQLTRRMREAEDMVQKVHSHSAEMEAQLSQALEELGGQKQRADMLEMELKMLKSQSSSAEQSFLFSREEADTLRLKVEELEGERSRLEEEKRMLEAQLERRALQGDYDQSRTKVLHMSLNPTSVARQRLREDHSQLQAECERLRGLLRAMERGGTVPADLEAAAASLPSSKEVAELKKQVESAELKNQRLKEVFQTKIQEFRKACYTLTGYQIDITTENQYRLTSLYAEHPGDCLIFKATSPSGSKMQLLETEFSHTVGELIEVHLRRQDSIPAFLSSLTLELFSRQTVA
Experiment: pull-down

binding result: binds
B1: human FLAG-BUB1-(437-509), phosphorylated in vitro (domain or fragment)
chain: SFHTTPNTSLGMVQATPSKVQPSPTVHTKEALGFIMNMFQAPTLPDISDDKDEWQSLDQNEDAFEAQFQKNVR
